Assay [1] has as its target SUMO2 chain (linear dimer/trimer) (Homo sapiens, UniProt P61956). The assay is described as follows: ITC. For orientation: Isothermal titration calorimetry measures the heat released or taken up as one component is titrated into another.
In assay [2] the target is SUMO1-capped SUMO2 chain (linear dimer/trimer) (Homo sapiens, UniProt P63165). The assay can be described thus: ITC.
SUMO1-capped SUMO2 chain (linear dimer/trimer), sequence (P63165 2-97, chain 1 of 2): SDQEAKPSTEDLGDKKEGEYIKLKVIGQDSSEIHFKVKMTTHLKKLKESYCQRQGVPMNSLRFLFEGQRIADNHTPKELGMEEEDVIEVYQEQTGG
SUMO1-capped SUMO2 chain (linear dimer/trimer), sequence (chain, as listed by the source, chain 2 of 2): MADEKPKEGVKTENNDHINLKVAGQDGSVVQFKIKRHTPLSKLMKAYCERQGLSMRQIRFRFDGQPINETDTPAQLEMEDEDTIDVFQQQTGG

SUMO2 chain (linear dimer/trimer), sequence (P61956 1-93): as the sequence (chain, as listed by the source, chain 2 of 2) above

B1: Arkadia SUMO-binding domain (protein)
chain: VLARRKYALLPSSSSSSENDLSSESSSSSSTEGEEDLFVSASENHQNNPAVPSGSIDEDVVVIEASSTPQVTANEEINVTSTDSEVEIVTVGESYRSRSTLGHSRSHWSQGSSSHASRPQEPRNRSRISTVIQPLRQNAAEVVDLTVDEDEPTVVPTTSARMES
B1: the Kd in assay [1] is about 13.5 µM; in assay [2], about 2.5 µM.

In general, Kd refers to the concentration at which binding is half-saturated.

The record behind these values is paper PMC6695498 (2019).
